Data published in patent publication EP0251446B1, “Non-human Carbonyl hydrolase mutants, DNA sequences and vectors encoding same and hosts transformed with said vectors” (GENENCOR INTERNATIONAL, INC., priority 1986, dated 1988).
Substitutions are numbered along the chain they refer to. Names and notes keep the numbering of the source.

Columns and labels:
Format in all cases: biochemical, B. amyloliquefaciens
[1] = substrate: C[C@H](NC(=O)CCC(=O)O)C(=O)N[C@@H](C)C(=O)N1CCC[C@H]1C(=O)N[C@@H](CCCCN)C(=O)Nc1ccc([N+](=O)[O-])cc1; assay: Kinetics of p-nitroanilide substrate hydrolysis, K166; settings: other: Table XIV, 156 Glu / 166 Lys; value in parentheses; synthetic substrate with label as P-1 amino acid
[2] = substrate: C[C@H](NC(=O)CCC(=O)O)C(=O)N[C@@H](C)C(=O)N1CCC[C@H]1C(=O)N[C@@H](CCC(N)=O)C(=O)Nc1ccc([N+](=O)[O-])cc1; assay: as above; settings: other: Table XIV, 156 Glu / 166 Lys; value in parentheses; synthetic substrate with label as P-1 amino acid
[3] = substrate: CSCC[C@H](NC(=O)[C@@H]1CCCN1C(=O)[C@H](C)NC(=O)[C@H](C)NC(=O)CCC(=O)O)C(=O)Nc1ccc([N+](=O)[O-])cc1; assay: as above; settings: other: Table XIV, 156 Glu / 166 Lys; value in parentheses; synthetic substrate with label as P-1 amino acid
[4] = substrate: C[C@H](NC(=O)CCC(=O)O)C(=O)N[C@@H](C)C(=O)N1CCC[C@H]1C(=O)N[C@@H](Cc1ccccc1)C(=O)Nc1ccc([N+](=O)[O-])cc1; assay: as above; settings: K166
Description: (§1) Wild-type subtilisin was purified from B. subtilis culture supernatants expressing the B. amyloliquefaciens subtilisin gene (Wells, J.A., et al. (1983) Nucleic Acids Res. 11, 7911-7925) as previously described (Estell, D.A., et al. (1985) J. Biol. Chem. 260, 6518-6521). Details of the synthesis of tetrapeptide substrates having the form succinyl-L-AlaL-AlaL-ProL-[X]-p-nitroanilide (where X is the P1 amino acid) are described by DelMar, E.G., et al. (1979) Anal. Biochem. 99, 316-320. Kinetic parameters, Km(M) and kcat-(s-^1) were measured using a modified progress curve analysis (Estell, D.A., et al. (1985) J. Biol. Chem. 260, 6518-6521). Briefly, plots of rate versus product concentration were fit to the differential form of the rate equation using a non-linear regression algorithm. Errors in kcat and Km for all values reported are less than five percent. The various substrates in Table VIII are ranged in order of decreasing hydrophobicity. Nozaki, Y. (1971), J. Biol. Chem. 246, 2211-2217; Tanford C. (1978) Science 200, 1012).
(§2) The construction of subtilisin mutants containing the substitution of the ionic amino acids Asp, Asn, Gln, Lys and Ang are disclosed in EPO Publication No. 0130756. The present example describes the construction of the mutant subtilisin containing Glu at position 166 (E166) and presents substrate specificity data on these mutants. Further data on position 166 and 156 single and double mutants is presented infra.
(§3) Each of these mutants was analyzed with the tetrapeptide substrates, succinyl-L-AlaL-AlaProL-X-p-nitroanilide, where X was Phe, Ala and Glu.
(§4) K166 is a common replacement amino acid in the 156/166 mutants described herein. The replacement of Lys for GIy166 was achieved by using the synthetic DNA cassette at the top right of Figure 21 which contained the triplet AAA for NNN. This produced fragment 2 with Lys substituting for GIy166.
(§5) These mutants, the single mutant K166, and the S156 and Q156 mutants of Example 8 were analyzed for substitute specificity against synthetic polypeptides containing Phe or Glu as the P-1 substrate residue.

[5] = substrate: C[C@H](NC(=O)CCC(=O)O)C(=O)N[C@@H](C)C(=O)N1CCC[C@H]1C(=O)N[C@@H](CCC(=O)O)C(=O)Nc1ccc([N+](=O)[O-])cc1; assay: as above
Description: as §1, §2, §3, §4, §5

[6] = substrate: C[C@H](NC(=O)CCC(=O)O)C(=O)N[C@@H](C)C(=O)N1CCC[C@H]1C(=O)N[C@@H](Cc1ccccc1)C(=O)Nc1ccc([N+](=O)[O-])cc1; assay: Kinetics of p-nitroanilide substrate hydrolysis, S156/K166; settings: other: Table XIII, S156/K166; synthetic substrate with label as P-1 residue
Description: as §1
(§6) The multiple mutants were produced by combining fragments 1, 2 and 3 as described in Example 8. The mutants Q156/K166 and S156/K166 were selectively generated by differential phosphorylation as described. Alternatively, the double 156/166 mutants, c.f. Q156/K166 and S156/K166, were prepared by ligation of the 4.6kb Sacl-BamHI fragment from the relevant p156 plasmid containing the 0.6kb Sacl-BamHI fragment from the relevant p166 plasmid.
as §5
(§7) To isolate the contribution of electrostatics to substrate specificity from other chemical binding forces, these various single and double mutants were analyzed for their ability to bind and cleave synthetic substrates containing Glu, Gln, Met and Lys as the P-1 substrate amino acid. This permitted comparisons between side-chains that were more sterically similar but differed in charge (e.g., Glu versus Gln, Lys versus Met). Similarly, mutant enzymes were assayed against homologous P-1 substrates that were most sterically similar but differed in charge (Table XIV).

[7] = substrate: C[C@H](NC(=O)CCC(=O)O)C(=O)N[C@@H](C)C(=O)N1CCC[C@H]1C(=O)N[C@@H](CCCCN)C(=O)Nc1ccc([N+](=O)[O-])cc1; assay: as above; settings: other: Table XIV, 156 Ser / 166 Lys; value in parentheses; synthetic substrate with label as P-1 amino acid
Description: as §1, §6, §5, §7

[8] = substrate: C[C@H](NC(=O)CCC(=O)O)C(=O)N[C@@H](C)C(=O)N1CCC[C@H]1C(=O)N[C@@H](CCC(N)=O)C(=O)Nc1ccc([N+](=O)[O-])cc1; assay: as above; settings: other: Table XIV, 156 Ser / 166 Lys; value in parentheses; synthetic substrate with label as P-1 amino acid
Description: as §1, §6, §5, §7

[9] = substrate: CSCC[C@H](NC(=O)[C@@H]1CCCN1C(=O)[C@H](C)NC(=O)[C@H](C)NC(=O)CCC(=O)O)C(=O)Nc1ccc([N+](=O)[O-])cc1; assay: as above; settings: other: Table XIV, 156 Ser / 166 Lys; value in parentheses; synthetic substrate with label as P-1 amino acid
Description: as §1, §6, §5, §7

[10] = substrate: C[C@H](NC(=O)CCC(=O)O)C(=O)N[C@@H](C)C(=O)N1CCC[C@H]1C(=O)N[C@@H](CCC(=O)O)C(=O)Nc1ccc([N+](=O)[O-])cc1; assay: as above
Description: as §1, §6, §5, §7

[11] = other: Table XIII, synthetic substrate with label as P-1 residue
[12] = other: Table XIII, K166, synthetic substrate with label as P-1 residue
[13] = other: Table XIII, S156/K166, synthetic substrate with label as P-1 residue

B1: B. amyloliquefaciens subtilisin variant K166 (Gly166 to Lys) (Bacillus amyloliquefaciens; G273K) (protein)
chain: AQSVPYGVSQIKAPALHSQGYTGSNVKVAVIDSGIDSSHPDLKVAGGASMVPSETNPFQDNNSHGTHVAGTVAALNNSIGVLGVAPSASLYAVKVLGADGSGQYSWIINGIEWAIANNMDVINMSLGGPSGSAALKAAVDKAVASGVVVVAAAGNEGTSGSSSTVKYPGKYPSVIAVGAVDSSNQRASFSSVGPELDVMAPGVSIQSTLPGNKYGAYNGTSMASPHVAGAAALILSKHPNWTNTQVRSSLENTTTKLGDSFYYGKGLINVQAAAQ
notes: at various amino acid residues within the mature form of the subtilisin molecule; made in house; host or cells: Bacillus subtilis BG2036
Km [1]: 1170 µM | Km [2]: 132 µM | Km [3]: 35.5 µM | Km [4, 11]: 40 µM | kcat [4, 11]: 20.00 s-^1 | kcat/Km [4, 11]: 520000 M⁻¹ s⁻¹ | Km ([4]; other: Table XIX): 37 µM | kcat ([4]; other: Table XIX): 21 s-^1 | Km [5, 12]: 56 µM | kcat [5, 12]: 0.70 s-^1 | kcat/Km [5, 12]: 12000 M⁻¹ s⁻¹ | Km ([5]; other: Table XIV, 156 Glu / 166 Lys, value in parentheses, synthetic substrate with label as P-1 amino acid): 56.2 µM

B2: B. amyloliquefaciens subtilisin variant S156/K166 (Bacillus amyloliquefaciens; E263S/G273K) (protein)
chain: B1 chain with E156S
notes: at various amino acid residues within the mature form of the subtilisin molecule; made in house
Km [6]: 18 µM | kcat [6]: 30.00 s-^1 | kcat/Km [6]: 1.6e+06 M⁻¹ s⁻¹ | Km [7]: 1450 µM | Km [8]: 115 µM | Km [9]: 12.6 µM | Km [10, 13]: 39 µM | kcat [10, 13]: 0.60 s-^1 | kcat/Km [10, 13]: 16000 M⁻¹ s⁻¹ | Km ([10]; other: Table XIV, 156 Ser / 166 Lys, value in parentheses, synthetic substrate with label as P-1 amino acid): 39.8 µM
